Data as given in publication PMC4326362, “Non-canonical regulation of phosphatidylinositol 3-kinase gamma isoform activity in retinal rod photoreceptor cells” (Cell Communication and Signaling : CCS, 2015).

How the values were obtained:
Experiment in all cases: co-IP; Flag-tagged CTR-CNGA1 (wild type or mutant) and Myc-tagged RA domains co-expressed in HEK-293T cells; reciprocal immunoprecipitation with anti-Flag or anti-Myc antibodies (IgG as control), immunoblot, densitometry
Conditions in all cases: partners not purified
CTR-CNGA1 (E581Q) = target: T1, CTR-CNGA1 (E581Q) (UniProt Q00194 483-690, E581Q)
T1 construct: CNGA1 C-terminal region, residues 483-690, with E581Q; Mutant of m1 made by site-directed mutagenesis; source: HEK-293T, transfected (pCDNA3), in lysate; not shown: FLAG, N-terminal, kept
T1 sequence (looked up): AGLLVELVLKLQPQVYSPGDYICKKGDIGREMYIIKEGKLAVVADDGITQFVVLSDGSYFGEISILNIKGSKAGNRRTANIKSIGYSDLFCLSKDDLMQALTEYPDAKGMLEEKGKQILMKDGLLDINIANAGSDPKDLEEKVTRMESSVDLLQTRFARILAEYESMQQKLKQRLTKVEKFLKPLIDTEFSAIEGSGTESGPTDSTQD

CTR-CNGA1 (D577,578 N) = target: T2, CTR-CNGA1 (D577,578 N) (UniProt Q00194 483-690, D577,578 N | D577,578 N)
T2 construct: CNGA1 C-terminal region, residues 483-690, with D577N and D578N; Mutant of m1 made by site-directed mutagenesis; source: HEK-293T, transfected (pCDNA3), in lysate; not shown: FLAG, N-terminal, kept
T2 sequence (looked up): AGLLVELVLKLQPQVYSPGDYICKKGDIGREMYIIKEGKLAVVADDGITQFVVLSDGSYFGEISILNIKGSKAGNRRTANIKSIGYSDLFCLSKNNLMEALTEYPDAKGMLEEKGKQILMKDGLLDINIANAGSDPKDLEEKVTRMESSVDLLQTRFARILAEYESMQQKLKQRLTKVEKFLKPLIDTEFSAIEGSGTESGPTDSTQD

CTR-CNGA1 (D577N) = target: T3, CTR-CNGA1 (D577N) (UniProt Q00194 483-690, D577N)
T3 construct: CNGA1 C-terminal region, residues 483-690, with D577N; Mutant of m1 made by site-directed mutagenesis; source: HEK-293T, transfected (pCDNA3), in lysate; not shown: FLAG, N-terminal, kept
T3 sequence (looked up): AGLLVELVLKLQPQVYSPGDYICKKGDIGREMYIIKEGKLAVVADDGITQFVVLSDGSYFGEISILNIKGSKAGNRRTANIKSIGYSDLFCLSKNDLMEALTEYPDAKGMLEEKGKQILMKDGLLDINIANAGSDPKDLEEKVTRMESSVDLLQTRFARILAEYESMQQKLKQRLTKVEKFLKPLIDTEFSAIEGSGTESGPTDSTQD

percent disruption of the interaction against wild type (CTR-CNGA1 (E581Q)): 50 percent | percent disruption of the interaction against wild type (CTR-CNGA1 (D577,578 N)): 45 percent | percent disruption of the interaction against wild type (CTR-CNGA1 (D577N)): 30 percent
B1: Myc-tagged RA domain of PI3Kγ (residues 141-311) (domain or fragment, UniProt P48736 141-311, looked up)
chain: HPPSEESQAFQRQLTALIGYDVTDVSNVHDDELEFTRRGLVTPRMAEVASRDPKLYAMHPWVTSKPLPEYLWKKIANNCIFIVIHRSTTSQTIKVSPDDTPGAILQSFFTKMAKKKSLMDIPESQSEQDFVLRVCGRDEYLVGETPIKNFQWVRHCLKNGEEIHVVLDTPP
notes: also called RA-PI3Kγ; PI3Kγ-RA; source: HEK-293T, transfected (pCDNA3), in lysate
